# Data: the Immune Epitope Database (IEDB)
# Tests used:
# HLA-A*02:16 = assay: IEDB peptide-MHC binding, purified MHC/competitive/fluorescence; filed as Kd, often an IC50 or EC50 that approximates it; ≥ and ≤ were set here for values at or beyond the usual limits of such assays; details: source organism: Pseudomonas sp. MIS38
# HLA-A*30:01 = assay: as above; details: source organism: Pseudomonas sp. MIS38
# HLA-B*07:02 [1] = assay: as above; details: source organism: Pseudomonas sp. MIS38
# HLA-A*03:01 [2] = assay: as above; details: source organism: Pseudomonas sp. MIS38
# HLA-A*02:03 = assay: as above; details: source organism: Pseudomonas sp. MIS38
# HLA-A*02:19 = assay: as above; details: source organism: Pseudomonas sp. MIS38
# HLA-A*24:02 [3] = assay: as above
# HLA-A*02:12 = assay: as above; details: source organism: Pseudomonas sp. MIS38
# HLA-A*02:06 = assay: as above; details: source organism: Pseudomonas sp. MIS38
# HLA-B*27:05 = assay: as above; details: source organism: Pseudomonas sp. MIS38
# HLA-B*58:01 [4] = assay: as above; details: source organism: Pseudomonas sp. MIS38
# HLA-A*69:01 = assay: as above; details: source organism: Pseudomonas sp. MIS38
# HLA-A*11:01 [5] = assay: as above; details: source organism: Pseudomonas sp. MIS38
# HLA-B*15:01 = assay: as above; details: source organism: Pseudomonas sp. MIS38
# HLA-A*01:01 [6] = assay: as above; details: source organism: Pseudomonas sp. MIS38
# HLA-A*02:01 [7] = assay: as above; details: source organism: Pseudomonas sp. MIS38
# HLA-A*02:11 = assay: as above; details: source organism: Pseudomonas sp. MIS38
# HLA-A*02:50 = assay: as above; details: source organism: Pseudomonas sp. MIS38
# HLA-B*40:01 = assay: as above; details: source organism: Pseudomonas sp. MIS38
# HLA-A*23:01 = assay: IEDB peptide-MHC binding, purified MHC/competitive/radioactivity; filed as Kd, often an IC50 or EC50 that approximates it; ≥ and ≤ were set here for values at or beyond the usual limits of such assays; details: source organism: SARS coronavirus Tor2
# HLA-A*29:02 [8] = assay: as above; details: source organism: SARS coronavirus Tor2
# HLA-A*01:01 [9] = assay: as above; details: source organism: SARS coronavirus Tor2
# HLA-A*30:02 = assay: as above; details: source organism: SARS coronavirus Tor2
# HLA-A*26:01 = assay: as above; details: source organism: SARS coronavirus Tor2
# HLA-C*07:02 = assay: IEDB peptide-MHC binding, purified MHC/direct/fluorescence; filed as Kd, often an IC50 or EC50 that approximates it; ≥ and ≤ were set here for values at or beyond the usual limits of such assays; details: source organism: SARS-CoV1
# HLA-B*35:01 = assay: IEDB peptide-MHC binding, purified MHC/competitive/fluorescence; ≥ and ≤ were set here for values at or beyond the usual limits of such assays
# HLA-B*07:02 [10] = assay: as above
# HLA-A*68:02 = assay: as above
# HLA-A*03:01 [11] = assay: as above
# HLA-B*51:01 = assay: as above
# HLA-A*24:02 [12] = assay: as above
# HLA-B*53:01 = assay: as above
# HLA-A*31:01 = assay: as above
# HLA-B*44:03 = assay: as above
# HLA-B*40:02 = assay: as above
# HLA-B*18:01 = assay: as above
# HLA-B*08:01 = assay: as above
# HLA-B*58:01 [13] = assay: as above
# HLA-B*14:02 = assay: as above
# HLA-B*37:01 = assay: as above
# HLA-A*29:02 [14] = assay: as above
# HLA-A*11:01 [15] = assay: as above
# HLA-A*01:01 [16] = assay: as above
# HLA-A*02:01 [17] = assay: as above
# HLA-A*25:01 = assay: as above
# [18] = source organism: Gorilla gorilla gorilla
# [19] = source organism: Monodelphis domestica
sequence,measurement,setting,value
YMLKDSAPT,Kd,HLA-A*02:16,0.0005 µM
same,Kd,HLA-A*30:01,≥ 20 µM
same,Kd,HLA-B*07:02 [1],≥ 20 µM
same,Kd,HLA-A*03:01 [2],≥ 20 µM
same,Kd,HLA-A*02:03,0.0042 µM
same,Kd,HLA-A*02:19,0.0114 µM
same,Kd,HLA-A*24:02 [3]; source organism: Pseudomonas sp. MIS38,≥ 20 µM
same,Kd,HLA-A*02:12,0.0019 µM
same,Kd,HLA-A*02:06,0.0023 µM
same,Kd,HLA-B*27:05,≥ 20 µM
same,Kd,HLA-B*58:01 [4],≥ 20 µM
same,Kd,HLA-A*69:01,2 µM
same,Kd,HLA-A*11:01 [5],≥ 20 µM
same,Kd,HLA-B*15:01,3.35 µM
same,Kd,HLA-A*01:01 [6],≥ 20 µM
same,Kd,HLA-A*02:01 [7],0.0602 µM
same,Kd,HLA-A*02:11,0.0094 µM
same,Kd,HLA-A*02:50,0.03 µM
same,Kd,HLA-B*40:01,≥ 20 µM
NYMPYVFTL,Kd,HLA-A*23:01,0.00637 µM
same,Kd,HLA-A*29:02 [8],0.369 µM
same,Kd,HLA-A*01:01 [9],≥ 78.1 µM
same,Kd,HLA-A*30:02,18.2 µM
same,Kd,HLA-A*26:01,≥ 51.8 µM
same,Kd,HLA-C*07:02,≤ 0.001 µM
same,Kd,HLA-A*24:02 [3]; source organism: SARS-CoV1,≤ 0.0001 µM
RYSHWTKL,IC50,HLA-B*35:01; [18],≥ 20 µM
same,IC50,HLA-B*07:02 [10]; [18],17.3 µM
same,IC50,HLA-A*68:02; [18],≥ 20 µM
same,IC50,HLA-A*03:01 [11]; [18],≥ 20 µM
same,IC50,HLA-B*51:01; [18],≥ 20 µM
same,IC50,HLA-A*24:02 [12]; [18],0.161 µM
same,IC50,HLA-B*53:01; [18],≥ 20 µM
same,IC50,HLA-A*31:01; [18],≥ 20 µM
same,IC50,HLA-B*44:03; [18],≥ 20 µM
same,IC50,HLA-B*40:02; [18],≥ 20 µM
same,IC50,HLA-B*18:01; [18],≥ 20 µM
same,IC50,HLA-B*08:01; [18],≥ 20 µM
same,IC50,HLA-B*58:01 [13]; [18],≥ 20 µM
same,IC50,HLA-B*14:02; [18],≥ 20 µM
same,IC50,HLA-B*37:01; [18],≥ 20 µM
same,IC50,HLA-A*29:02 [14]; [18],≥ 20 µM
same,IC50,HLA-A*11:01 [15]; [18],≥ 20 µM
same,IC50,HLA-A*01:01 [16]; [18],≥ 20 µM
same,IC50,HLA-A*02:01 [17]; [18],≥ 20 µM
same,IC50,HLA-A*25:01; [18],≥ 20 µM
YSLEYFQFVKK,IC50,HLA-B*35:01; [19],≥ 20 µM
same,IC50,HLA-B*07:02 [10]; [19],≥ 20 µM
same,IC50,HLA-A*68:02; [19],≥ 20 µM
same,IC50,HLA-A*03:01 [11]; [19],≥ 20 µM
same,IC50,HLA-B*51:01; [19],≥ 20 µM
same,IC50,HLA-A*24:02 [12]; [19],≥ 20 µM
same,IC50,HLA-B*53:01; [19],≥ 20 µM
same,IC50,HLA-A*31:01; [19],≥ 20 µM
same,IC50,HLA-B*44:03; [19],≥ 20 µM
same,IC50,HLA-B*40:02; [19],≥ 20 µM
same,IC50,HLA-B*18:01; [19],≥ 20 µM
same,IC50,HLA-B*08:01; [19],≥ 20 µM
same,IC50,HLA-B*58:01 [13]; [19],≥ 20 µM
same,IC50,HLA-B*14:02; [19],≥ 20 µM
same,IC50,HLA-B*37:01; [19],≥ 20 µM
same,IC50,HLA-A*29:02 [14]; [19],≥ 20 µM
same,IC50,HLA-A*11:01 [15]; [19],2.9 µM
same,IC50,HLA-A*01:01 [16]; [19],≥ 20 µM
same,IC50,HLA-A*02:01 [17]; [19],≥ 20 µM
same,IC50,HLA-A*25:01; [19],≥ 20 µM
